Reference: US20230265215A1 (OMEROS, published 2023)

Experiments:
[1] = target: T1, C1s (human, UniProt P09871 16-688, limits assumed); assay: solid phase ELISA, against human MASP-2 as reference
T1 construct: Species read from 'Recombinant human MASP-2 or C1r, C1s, CFD, MASP-1 and MASP-3'
T1 sequence (looked up): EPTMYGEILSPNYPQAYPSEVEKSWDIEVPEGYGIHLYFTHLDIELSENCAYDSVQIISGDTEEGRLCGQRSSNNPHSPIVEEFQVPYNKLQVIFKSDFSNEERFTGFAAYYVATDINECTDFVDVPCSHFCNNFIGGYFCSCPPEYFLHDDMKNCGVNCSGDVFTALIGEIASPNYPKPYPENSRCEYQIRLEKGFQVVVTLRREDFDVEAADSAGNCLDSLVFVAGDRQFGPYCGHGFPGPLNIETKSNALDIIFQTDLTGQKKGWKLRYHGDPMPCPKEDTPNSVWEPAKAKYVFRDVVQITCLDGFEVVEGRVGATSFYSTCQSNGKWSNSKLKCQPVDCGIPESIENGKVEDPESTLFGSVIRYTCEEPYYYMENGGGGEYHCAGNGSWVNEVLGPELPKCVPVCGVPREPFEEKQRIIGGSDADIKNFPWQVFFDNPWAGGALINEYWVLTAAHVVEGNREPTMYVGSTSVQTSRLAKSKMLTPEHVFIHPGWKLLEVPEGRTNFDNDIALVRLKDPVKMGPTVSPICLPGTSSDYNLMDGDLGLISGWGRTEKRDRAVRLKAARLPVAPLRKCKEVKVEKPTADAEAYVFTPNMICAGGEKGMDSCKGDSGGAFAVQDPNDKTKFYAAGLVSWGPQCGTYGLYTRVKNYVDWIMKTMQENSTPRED
Description: (§1) The apparent dissociation constant (KD) was estimated by nonlinear regression using a 4-parameter logistic model.
(§2) Fold selectivity calculated as KD(related serine protease)/mean KD(MASP-2).

[2] = target: T2, C1r (human, UniProt P00736 18-705, limits assumed); assay: as above
T2 construct: Species read from 'Recombinant human MASP-2 or C1r, C1s, CFD, MASP-1 and MASP-3'
T2 sequence (looked up): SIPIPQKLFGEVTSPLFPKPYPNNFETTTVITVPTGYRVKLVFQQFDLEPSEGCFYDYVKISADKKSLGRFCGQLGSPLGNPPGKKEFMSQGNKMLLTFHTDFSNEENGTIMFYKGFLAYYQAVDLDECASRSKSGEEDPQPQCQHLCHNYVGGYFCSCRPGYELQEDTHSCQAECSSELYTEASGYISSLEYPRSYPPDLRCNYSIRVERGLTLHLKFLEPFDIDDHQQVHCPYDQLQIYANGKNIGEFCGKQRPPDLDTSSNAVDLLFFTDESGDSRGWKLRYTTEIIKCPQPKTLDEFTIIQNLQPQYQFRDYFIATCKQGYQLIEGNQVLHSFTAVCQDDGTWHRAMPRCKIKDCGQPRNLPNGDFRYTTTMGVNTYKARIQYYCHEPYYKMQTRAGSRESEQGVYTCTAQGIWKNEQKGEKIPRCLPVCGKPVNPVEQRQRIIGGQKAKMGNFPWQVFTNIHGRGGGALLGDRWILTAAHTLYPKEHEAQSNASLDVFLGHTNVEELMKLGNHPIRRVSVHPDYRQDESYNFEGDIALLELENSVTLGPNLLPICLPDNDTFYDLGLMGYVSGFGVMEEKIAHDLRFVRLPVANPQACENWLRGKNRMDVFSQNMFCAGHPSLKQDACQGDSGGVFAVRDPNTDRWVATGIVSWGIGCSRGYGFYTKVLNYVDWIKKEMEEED
Description: as §1, §2

[3] = target: T3, MASP-1 (human, UniProt P48740 20-699, limits assumed); assay: as above
T3 construct: Species read from 'Recombinant human MASP-2 or C1r, C1s, CFD, MASP-1 and MASP-3'
T3 sequence (looked up): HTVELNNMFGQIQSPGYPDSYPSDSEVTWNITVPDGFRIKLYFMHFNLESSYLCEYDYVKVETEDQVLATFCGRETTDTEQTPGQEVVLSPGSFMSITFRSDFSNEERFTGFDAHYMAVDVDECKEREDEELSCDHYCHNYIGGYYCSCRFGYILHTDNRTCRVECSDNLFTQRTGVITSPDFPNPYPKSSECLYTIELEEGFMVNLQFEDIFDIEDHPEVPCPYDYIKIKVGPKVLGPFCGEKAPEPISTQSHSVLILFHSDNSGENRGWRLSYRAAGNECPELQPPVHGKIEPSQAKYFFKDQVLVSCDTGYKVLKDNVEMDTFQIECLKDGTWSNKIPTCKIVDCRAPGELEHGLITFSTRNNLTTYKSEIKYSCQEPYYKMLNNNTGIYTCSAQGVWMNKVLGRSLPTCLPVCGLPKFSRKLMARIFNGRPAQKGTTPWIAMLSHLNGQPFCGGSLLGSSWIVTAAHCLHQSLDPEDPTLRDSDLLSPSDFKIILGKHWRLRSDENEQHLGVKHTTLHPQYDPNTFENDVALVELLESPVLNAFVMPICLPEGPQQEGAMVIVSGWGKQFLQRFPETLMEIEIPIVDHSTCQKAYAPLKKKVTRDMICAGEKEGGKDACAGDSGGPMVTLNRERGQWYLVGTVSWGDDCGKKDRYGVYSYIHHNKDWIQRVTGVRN
Description: as §1, §2

[4] = target: T4, CFD (human, UniProt P00746 26-253, limits assumed); assay: as above
T4 construct: Species read from 'Recombinant human MASP-2 or C1r, C1s, CFD, MASP-1 and MASP-3'; also called factor D; complement factor D
T4 sequence (P00746 26-253 limits assumed): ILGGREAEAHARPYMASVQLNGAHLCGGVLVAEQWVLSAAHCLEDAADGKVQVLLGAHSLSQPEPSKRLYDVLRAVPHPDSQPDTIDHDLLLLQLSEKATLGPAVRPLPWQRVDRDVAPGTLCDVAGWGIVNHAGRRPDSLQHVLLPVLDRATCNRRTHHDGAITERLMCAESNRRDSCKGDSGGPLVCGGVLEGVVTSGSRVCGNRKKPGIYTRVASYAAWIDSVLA
Description: as §1, §2

[5] = target: T3, MASP-1; assay: solid phase ELISA, immobilized protease, apparent KD
Description: as §1

Fold selectivity (KD related serine protease / mean KD MASP-2) [1]: > 2000 fold
Fold selectivity (KD related serine protease / mean KD MASP-2) [2]: > 2000 fold
Fold selectivity (KD related serine protease / mean KD MASP-2) [3]: > 2000 fold
Fold selectivity (KD related serine protease / mean KD MASP-2) [4]: > 2000 fold
Kd [5]: > 100 µg/mL
B1: mAb OMS858 (humanized anti-MASP-2 antibody) (antibody, V domains shown)
VH: QVQLVQSGAEVKKPGASVKVSCKASGYTFTNHHMHWLRQAPGQGLEWIGDIDASDSETHYIEKFKDRATLTIDKSSSTAYMELSSLRSEDTAVYYCARGDITTTLRYFDVWGQGTLVTVSS
VL: DIQLTQSPSSLSASVGDRVTITCSASSSVRYMYWYQQKPGKAPKLLIYDTSNLASGVPSRFSGSGSGTDNTLTISSLQPEDFATYYCQQWSSYPLTFGQGTKVEIKR
notes: also called antibody OMS858; biotinylated OMS858
